B1: nDer p2: purified natural allergen Der p2, major allergen from the house dust mite Dermatophagoides pteronyssinus (protein, UniProt P49278 18-146, looked up)
Mite group 2 allergen Der p 2: DQVDVKDCANHEIKKVLVPGCHGSEPCIIHRGKPFQLEAVFEANQNTKTAKIEIKASIDGLEVDVPGIDPNACHYMKCPLVKGQQYDIKYTWNVPKIAPKSENVVVTVKVMGDDGVLACAIATHAKIRD
modifications: natural purified
notes: purified natural allergen Der p2, major allergen from the house dust mite Dermatophagoides pteronyssinus

How the values were obtained:
Type in all cases: cell-based, human
purified B cells = experiment: B cell activation (tritiated thymidine incorporation); settings: for Stimulation index (mean ± SE): B cell proliferation
Procedure: Circulating mononuclear cells (MNC) are isolated by Ficoll-Hypaque density gradient from buffy coats of healthy donors (Servizio Immunotrasfusionale e terapie cellulari, Azienda Ospedaliero Universitaria Pediatrica A. Meyer, Firenze). 200×10^6 MNC are then separated using the commercial CD19 isolation kit (Miltenyi) by the addition of 400 μl iron microbead-bound anti-CD19 monoclonal antibody followed by magnetic separation on LS column. 20×10^6 B cells are isolated by positive selection and are extensively washed by the use of calcium- and magnesium-free PBS and cultured in triplicates at the concentration of 1×10^6/ml/well in complete medium plus 10% foetal calf serum in 96-U plates. […] Plates are incubated in humidified atmosphere at 37° C. for 72 hrs and at the end 0.5 μCi tritiated thymidine is added to each well for further 16 hrs. The incorporated radioactivity is measured as already described in step (f) of Example 4.

[1] = test system: NF-κB p50 subunit in purified CD14+ cells; experiment: NF-κB activation: nuclear p50 in purified CD14+ cells; settings: 2 hrs, allergens and conjugates 10 μg/ml, R-848 2 μg/ml
Procedure: The tubes are then incubated for 2 hrs in 5% CO2 humidified atmosphere at 37° C. and then washed with 10 ml PBS, centrifuged at 1500 rpm repeating the treatment thrice and the cellular pellet finally dried by the use of a micropipette and stored at −80° C. up to the assay. […] Two different protein amounts (0.5 and 2 μg) were incubated in 96w plates coated by the immobilized oligonucleotide containing the activated NF-κB consensus site (5′-[…]-3′), followed by the incubation with an antibody recognizing an epitope of the NF-κB p50 subunit. An HRP-conjugated secondary antibody was added to single wells and the colorimetric read-out was quantified by spectrophotometry. Values are reported as Optical Density. […] For the specificity of the assay, a wild-type consensus oligonucleotide was used as a competitor for NF-κB binding.

[2] = test system: allergen-specific T cell clones; experiment: Functional phenotype of allergen-specific T cell clones; settings: for Clonal Efficiency (%): T cell lines derived in the presence of the stimulus
Text: For the functional analysis of T cell clones specific for nDer p2 and nDer p2-con j, T cell lines are initially derived from MNC of two atopic donors (G. E. and M. A.) affected by bronchial asthma and allergic rhinitis and sensitized to Dermatophagoides pteronyssinus, in the presence of nDer p2- or its respective conjugate nDer p2-conj. […] 28 allergen-specific T cell clones are obtained from T cell lines specific for nDer p2 from donor two and 37 from donor one whereas 28 clones are obtained from T cell lines derived in the presence of nDer p2-conj from both donors.
The allergen-specific clones obtained in the different experimental conditions have been then assessed for their ability to produce IL-4 ([…]) and IFN-gamma (pg/ml) in the culture supernatants after polyclonal stimulation with PMA and anti-CD3 monoclonal antibody.

[3] = test system: allergen-specific T cell lines; experiment: Functional phenotype of allergen-specific cells with different ratios between allergen and modified adenine; settings: T cell lines from atopic donors, Example 5 step d
CRTH2 cells = experiment: Phenotype of allergen-specific CRTH2 cells; settings: allergen 10 μg/ml, PMA and ionomicin
Procedure: Mononuclear cells from peripheral blood (MNC) are isolated by density gradient (Ficoll-Hypaque) using buffy coats from Dermatophagoides pteronyssinus-sensitized donors (Servizio Immunotrasfusionale e terapie cellulari, Azienda Ospedaliero Universitaria Pediatrica A. Meyer, Firenze). 500×10^6 MNC are separated by the addition of 500 μl anti-CRTH2 monoclonal antibody for 20 min at room temperature, then extensively washed and incubated again with a secondary polyclonal antibody bound to iron microbeads and finally positively selected on a magnetic column (LS column). 10×10^6 cells are recovered by positive selection, extensively washed with sterile calcium and magnesium-free PBS buffer and cultured at the concentration 1×10^6/ml/well in complete medium plus 5% human AB serum in 24-flat bottomed plates. As stimulants, unconjugated allergens (DP or nDer p2) or conjugates (DP-conj or nDer p2-conj) (all at 10 μg/ml) have been used. Cultures have been incubated for 6 days at 37° C. in 5% CO2 humidified atmosphere and further expanded with rIL-2 25 UI/ml until 14 days when T cell blasts are collected, extensively washed, counted, adjusted at 1×10^6/ml concentration and polyclonally stimulated with PMA and ionomicin as already described to assess the intracellular production of IL-4 and IFN-gamma.

| Molecule | proliferation of purified B lymphocytes (in words) (purified B cells; thymidine incorporation) | p50 nuclear expression (NF-κB activation) [1] | Stimulation index (mean ± SE) (purified B cells; concentration 0.5 μg/ml) | Stimulation index (mean ± SE) (purified B cells; concentration 2.5 μg/ml) | Stimulation index (mean ± SE) (purified B cells; concentration 10 μg/ml) | Clonal Efficiency (%) ([2]; Donor one) | Clonal Efficiency (%) ([2]; Donor two) | clones producing IL-4 alone ([2]; donor one, PMA and anti-CD3) [%] | clones producing IL-4 together with IFN-gamma (TH0 phenotype) ([2]; donor one, PMA and anti-CD3) [%] | clones able to produce IL-4 alone or together with IFN-gamma ([2]; donor two, PMA and anti-CD3) [%] | % of cells expressing IFN-gamma+ [3] [%] | % of cells expressing IL-4+ [3] [%] | % of cells expressing IFN-gamma+ (CRTH2 cells; Donor #3, CRTH2 cells) [%] | % of cells expressing IL-4+ (CRTH2 cells; Donor #3, CRTH2 cells) [%] | % of cells expressing IL-4+ IFN-gamma+ (CRTH2 cells; Donor #3, CRTH2 cells) [%] | % of cells expressing IFN-gamma+ (CRTH2 cells; Donor #4, CRTH2 cells) [%] | % of cells expressing IL-4+ (CRTH2 cells; Donor #4, CRTH2 cells) [%] | % of cells expressing IL-4+ IFN-gamma+ (CRTH2 cells; Donor #4, CRTH2 cells) [%] |
| --- | --- | --- | --- | --- | --- | --- | --- | --- | --- | --- | --- | --- | --- | --- | --- | --- | --- | --- |
| CCOCc1nc2c(N)nc3ccccc3c2n1CC(C)(C)O [Conj R-848, reference compound] | high levels of incorporation of radioactive thymidine |  |  |  |  |  |  |  |  |  |  |  |  |  |  |  |  |  |
| Nc1nc(SCCCC(=O)ON2C(=O)CCC2=O)nc2c1nc(O)n2Cc1ccccc1 [SA-26E, 4-(6-Amino-9-benzyl-8-hydroxy-9H-purin-2-ylsulfanyl)-butyric acid 2,5-dioxo-pyrrolidin-1-yl ester] |  | completely inactive |  |  |  |  |  |  |  |  |  |  |  |  |  |  |  |  |
| B1 |  | inactive | 1.6 ± 0.4 | 1.7 ± 0.2 | 1.7 ± 0.1 | 30 | 24 | 56.7 | 29.7 | 75 | 5 | 55.5 | 5.8 | 47.6 | 1.3 | 2.0 | 78.2 | 2.3 |
